Results: US5858752

Target: 32D c13 cells stably expressing the human Fuc-TIV (myeloid) enzyme
Assay: adhesion of 51Cr-loaded cells to plate-captured selectin/IgM fusion protein

human E-selectin/IgM fusion protein (from UniProt P16581)
fold binding density relative to untransfected cells: 10 fold
